The values below are quoted from earlier work in PMC3416746.

What is called Kd is the constant that tells how readily two partners part at equilibrium.

Series [1] concerns the target mDia1 N-terminus (Mus musculus) (UniProt O08808).
Series [2] concerns the target mDia1 DID DID (Mus musculus) (UniProt O08808).

Turning to RhoA (from UniProt P61586), in series [1], the Kd is 6 nM. On to mDia1 DAD DAD (from UniProt O08808), for which the Kd in series [2] is 150 nM.
